According to paper doi:10.1101/2020.12.09.418111:

Target: T1, Kaiso without BTB/POZ domain, GST fusion (UniProt Q86T24 113-672)
T1 sequence: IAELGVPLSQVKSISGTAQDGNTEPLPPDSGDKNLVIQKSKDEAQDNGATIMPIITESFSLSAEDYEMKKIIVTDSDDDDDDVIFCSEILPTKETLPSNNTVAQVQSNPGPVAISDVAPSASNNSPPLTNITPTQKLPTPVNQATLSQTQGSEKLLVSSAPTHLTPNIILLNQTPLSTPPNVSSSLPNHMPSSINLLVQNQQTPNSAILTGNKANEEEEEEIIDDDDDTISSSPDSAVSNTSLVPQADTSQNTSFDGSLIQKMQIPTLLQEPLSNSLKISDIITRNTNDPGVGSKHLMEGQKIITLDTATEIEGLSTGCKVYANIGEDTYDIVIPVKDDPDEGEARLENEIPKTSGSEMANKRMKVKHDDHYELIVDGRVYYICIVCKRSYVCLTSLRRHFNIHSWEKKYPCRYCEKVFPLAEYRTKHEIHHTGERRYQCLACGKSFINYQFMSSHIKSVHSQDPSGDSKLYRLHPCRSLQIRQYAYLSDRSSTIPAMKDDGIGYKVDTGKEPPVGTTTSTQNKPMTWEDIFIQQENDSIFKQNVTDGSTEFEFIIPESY
Assay: EMSA

B1: met-SM-FAM / met-SM methylated probe (dsDNA)
DNA 1: GCAGCCGCGCCCAACGCTGGGAGATC
DNA 2: TCCCCAGCGTTGGGCGCGGCTGCGATC
modifications: 5-methylcytosine (printed meC) at strand 1 positions 6, 8, 15 and strand 2 positions 8, 15, 17
Does B1 bind?
Result: binds
